We go through one protein from FireProtDB (doi:10.1021/bi991296s).

Values joined by “and” are separate entries in the source; they are usually repeats but may differ in a detail not shown here. Equal entries are not always repeated.

For this series the following is noted: Escherichia coli (strain K12), pH 7.8, 25 °C, Urea, transition: 4, whole UniProt chain shown.
Setting [1] is: SAXS, Potassium phosphate 10 mM.
Where [2] appears, read: SEC, Potassium phosphate 100 mM.

B1: Tryptophan synthase alpha chain wild type, P0A877 (protein)
chain: MERYESLFAQLKERKEGAFVPFVTLGDPGIEQSLKIIDTLIEAGADALELGIPFSDPLADGPTIQNATLRAFAAGVTPAQCFEMLALIRQKHPTIPIGLLMYANLVFNKGIDEFYAQCEKVGVDSVLVADVPVEESAPFRQAALRHNVAPIFICPPNADDDLLRQIASYGRGYTYLLSRAGVTGAENRAALPLNHLVAKLKEYNAAPPLQGFGISAPDQVKAAIDAGAAGAISGSAIVKIIEQHINEPEKMLAALKVFVQPMKAATRS
In the case of B1, the denaturant m value reads like this: (CD, Potassium phosphate 10 mM) 2.2 kcal/mol/M and 1.1 kcal/mol/M and 0.84 kcal/mol/M; under setting [1], 2 kcal/mol/M and 0.9 kcal/mol/M; under setting [2], 2 kcal/mol/M and 1.2 kcal/mol/M. In addition, the unfolding free energy (CD, Potassium phosphate 10 mM) is 6 kcal/mol and 4.5 kcal/mol and 4.9 kcal/mol; the unfolding free energy under setting [1] was 5.3 kcal/mol and 3.1 kcal/mol; the unfolding free energy under setting [2] was 5.7 kcal/mol and 4.9 kcal/mol.
